# Where “and” joins values, the source holds several entries; their conditions need not be identical. Equal entries are not always repeated.
# Test system: patients with RRMM
# Experiment: PAVO Part 3: treatment-emergent adverse events with DARA SC and corticosteroid tapering
# Procedure: The PAVO (MMY1004) trial is an open-label, nonrandomized, multicenter, phase lb study consisting of 3 parts. […] Safety was assessed, with an emphasis on IRRs, while corticosteroids were reduced and discontinued.
# The purpose of Part 3 was to evaluate the safety of daratumumab 1,800 mg SC delivery without predose and postdose corticosteroids after a 3-week, 2-week, and 1-week tapering schedule to assess the safety of corticosteroid-free SC daratumumab administration. A total of 42 participants were treated. […] In conjunction, patients also received a 3-week, 2-week, or 1-week steroid tapering schedule (FIG. 2). The 3-week tapering schedule (corticosteroid-free by Cycle 1 Day 22) consisted of methylprednisolone (MP) given orally (PO)/IV pre-dose (Cycle 1 Day 1, 100 mg; Cycle 1 Day 8, 60 mg; Cycle 1 Day 15, 30 mg) and PO post-dose (Cycle 1 Day 1, 20 mg for 2 days; Cycle 1 Day 8, 20 mg for 1 day; Cycle 1 Day 15, 20 mg for 1 day). The 2-week tapering schedule (corticosteroid-free by Cycle 1 Day 15) consisted of MP given PO/IV pre-dose (Cycle 1 Day 1, 100 mg; Cycle 1 Day 8, 60 mg) and PO post-dose (Cycle 1 Day 1, 20 mg for 2 days; Cycle 1 Day 8, 20 mg for 1 day). The 1-week tapering schedule (corticosteroid-free by Cycle 1 Day 8) consisted of dexamethasone 20 mg administered IV pre-dose on Cycle 1 Day 1, without post-dose administration.
# The 3-week, 2-week and 1-week steroid tapering schedules were assessed by “3+3” design, followed by cohort expansion to approximately 15 patients (3-week and 2-week tapering cohorts) or 12 patients (1-week tapering cohort). The dose-limiting toxicity (DLT) assessment period in the 3-week, 2-week and 1-week tapering cohorts were Cycle 1 Day 1 through Cycle 2 Day 4, Cycle 1 Day 1 through Cycle 1 Day 25, and Cycle 1 Day 1 through Cycle 1 Day 11, respectively. […] Grade 3 or 4 IRRs only qualified as DLTs if they occurred during corticosteroid reduction or discontinuation (not during Cycle 1 Day 1). For the 3-week and 2-week groups, IRRs reported at Cycle 1 Day 1 were not considered DLTs, as corticosteroids had not yet been reduced or discontinued. Up to approximately 12 patients could be enrolled in the 1-week tapering schedule to assess safety, including IRRs.
# Safety assessments included treatment-emergent adverse events (TEAEs), serious adverse events, and IRRs. All toxicities were graded according to the National Cancer Institute's Common Terminology for the Classification of Adverse Events (NCI-CTCAE) Version 4.03 (National Cancer Institute. Common Terminology Criteria for Adverse Events (CTCAE): Version 4.03.).
# The safety and efficacy populations, defined as all patients who received ≥1 dose of study drug, was the primary population for analysis. […] The pharmacokinetic-evaluable population was defined as all patients who received ≥1 dose of study drug and provided ≥1 post-infusion pharmacokinetic sample. The immunogenicity population was defined as all patients who received ≥1 dose of study drug and provided ≥1 post-infusion immunogenicity sample.
substance,measurement,setting,value
"DARA SC: 1,800 mg daratumumab co-formulated with 30,000 U rHuPH20 (2,000 U/mL, 15 mL), manual subcutaneous injection","Grade ≥3 TEAEs, participants",3-week taper,60%
same,"Nausea, participants",3-week taper,53%
same,Nervous system disorders,3-week taper,46.7%
same,Patients who died due to complications from DLBCL,3-week taper,One
same,TEAEs with an outcome of death,3-week taper,No deaths
same,"Anemia, any grade TEAE",3-week taper n=15,1 (6.7) n (%) and 1 (6.7%) n (%)
same,"Anemia, grade ≥3 TEAE",3-week taper n=15,1 (6.7) n (%) and 1 (6.7%) n (%)
same,Any TEAE,3-week taper n=15,15 (100)^ n (%) and 15 (100.0%) n (%)
same,Any grade ≥3 TEAE,3-week taper n=15,9 (60.0) n (%) and 9 (60.0%) n (%)
same,"Arthralgia, any grade TEAE",3-week taper n=15,3 (20.0) n (%) and 3 (20.0%) n (%)
same,"Asthenia, any grade TEAE",3-week taper n=15,1 (6.7) n (%) and 1 (6.7%) n (%)
same,"Back pain, TEAE",3-week taper n=15,1 (6.7%) n (%)
same,"Blood and lymphatic system disorders (SOC), TEAE",3-week taper n=15,4 (26.7%) n (%)
same,"Blood and lymphatic system disorders (SOC), grade 3 or higher TEAE",3-week taper n=15,3 (20.0%) n (%)
same,"Bone pain, TEAE",3-week taper n=15,2 (13.3%) n (%)
same,"Bone pain, grade ≥3 TEAE",3-week taper n=15,1 (6.7) n (%) and 1 (6.7%) n (%)
same,"Chills, TEAE",3-week taper n=15,2 (13.3%) n (%)
same,"Constipation, TEAE",3-week taper n=15,2 (13.3%) n (%)
same,"Cough, any grade TEAE",3-week taper n=15,3 (20.0) n (%) and 3 (20.0%) n (%)
same,"Decreased appetite, TEAE",3-week taper n=15,3 (20.0%) n (%)
same,"Diarrhea, any grade TEAE",3-week taper n=15,4 (26.7) n (%) and 4 (26.7%) n (%)
same,"Dizziness, any grade TEAE",3-week taper n=15,4 (26.7) n (%) and 4 (26.7%) n (%)
same,"Erythema, any grade TEAE",3-week taper n=15,2 (13.3) n (%) and 2 (13.3%) n (%)
same,"Fatigue, any grade TEAE",3-week taper n=15,4 (26.7) n (%) and 4 (26.7%) n (%)
same,"Gastrointestinal disorders (SOC), TEAE",3-week taper n=15,9 (60.0%) n (%)
same,"General disorders and administration site conditions (SOC), TEAE",3-week taper n=15,11 (73.3%) n (%)
same,"Headache, any grade TEAE",3-week taper n=15,5 (33.3) n (%) and 5 (33.3%) n (%)
same,"Lymphopenia, grade ≥3 TEAE",3-week taper n=15,2 (13.3%) n (%) and 2 (13.3) n (%)
same,"Metabolism and nutrition disorders (SOC), TEAE",3-week taper n=15,7 (46.7%) n (%)
same,"Muscle spasms, any grade TEAE",3-week taper n=15,1 (6.7) n (%)
same,"Musculoskeletal and connective tissue disorders (SOC), TEAE",3-week taper n=15,6 (40.0%) n (%)
same,"Musculoskeletal and connective tissue disorders (SOC), grade 3 or higher TEAE",3-week taper n=15,2 (13.3%) n (%)
same,"Nasopharyngitis, any grade TEAE",3-week taper n=15,5 (33.3) n (%) and 5 (33.3%) n (%)
same,"Nausea, any grade TEAE",3-week taper n=15,8 (53.5%) n (%) and 8 (53.3%) n (%) and 8 (53.3) n (%)
same,"Nervous system disorders (SOC), TEAE",3-week taper n=15,7 (46.7%) n (%)
same,"Neutropenia, grade ≥3 TEAE",3-week taper n=15,0 n (%)
same,"Oropharyngeal pain, TEAE",3-week taper n=15,2 (13.3%) n (%)
same,"Pain in extremity, any grade TEAE",3-week taper n=15,4 (26.7) n (%) and 4 (26.7%) n (%)
same,Patients with a serious TEAE,3-week taper n=15,6 (40.0%) n (%)
same,"Peripheral edema, any grade TEAE",3-week taper n=15,1 (6.7) n (%) and 1 (6.7%) n (%)
same,"Pyrexia, any grade TEAE",3-week taper n=15,4 (26.7) n (%) and 4 (26.7%) n (%)
same,"Respiratory, thoracic and mediastinal disorders (SOC), TEAE",3-week taper n=15,6 (40.0%) n (%)
same,"Skin and subcutaneous tissue disorders (SOC), TEAE",3-week taper n=15,6 (40.0%) n (%)
same,"Vomiting, TEAE",3-week taper n=15,2 (13.3%) n (%)
same,"Anemia, TEAE of Grade >3",PAVO Part 3,9.5%
same,Serious TEAEs in SOC General disorders and administration site conditions,PAVO Part 3,4.8%
same,TEAEs in SOC General disorders and administration site conditions,PAVO Part 3,71.4%
same,"Anemia, any grade TEAE",Total n=42,7 (16.7) n (%) and 7 (16.7%) n (%)
same,"Anemia, grade ≥3 TEAE",Total n=42,4 (9.5) n (%) and 4 (9.5%) n (%)
same,Any grade ≥3 TEAE,Total n=42,21 (50.0%) n (%) and 21 (50.0) n (%)
same,"Arthralgia, any grade TEAE",Total n=42,10 (23.8) n (%) and 10 (23.8%) n (%)
same,"Asthenia, any grade TEAE",Total n=42,7 (16.7) n (%) and 7 (16.7%) n (%)
same,"Back pain, TEAE",Total n=42,6 (14.3%) n (%)
same,"Blood and lymphatic system disorders (SOC), TEAE",Total n=42,11 (26.2%) n (%)
same,"Blood and lymphatic system disorders (SOC), grade 3 or higher TEAE",Total n=42,8 (19.0%) n (%)
same,"Bone pain, TEAE",Total n=42,7 (16.7%) n (%)
same,"Bone pain, grade ≥3 TEAE",Total n=42,3 (7.1) n (%) and 3 (7.1%) n (%)
same,"Chills, TEAE",Total n=42,5 (11.9%) n (%)
same,"Constipation, TEAE",Total n=42,7 (16.7%) n (%)
same,"Cough, any grade TEAE",Total n=42,7 (16.7) n (%) and 7 (16.7%) n (%)
same,"Decreased appetite, TEAE",Total n=42,5 (11.9%) n (%)
same,"Diarrhea, any grade TEAE",Total n=42,11 (26.2) n (%) and 11 (26.2%) n (%)
same,"Dizziness, any grade TEAE",Total n=42,5 (11.9) n (%) and 5 (11.9%) n (%)
same,"Erythema, any grade TEAE",Total n=42,6 (14.3) n (%) and 6 (14.3%) n (%)
same,"Fatigue, any grade TEAE",Total n=42,9 (21.4) n (%) and 9 (21.4%) n (%)
same,"Gastrointestinal disorders (SOC), TEAE",Total n=42,24 (57.1%) n (%)
same,"General disorders and administration site conditions (SOC), TEAE",Total n=42,30 (71.4%) n (%)
same,"Headache, any grade TEAE",Total n=42,7 (16.7) n (%) and 7 (16.7%) n (%)
same,"Lymphopenia, grade ≥3 TEAE",Total n=42,3 (7.1) n (%) and 3 (7.1%) n (%)
same,"Metabolism and nutrition disorders (SOC), TEAE",Total n=42,12 (28.6%) n (%)
same,"Muscle spasms, any grade TEAE",Total n=42,4 (9.5) n (%)
same,"Musculoskeletal and connective tissue disorders (SOC), TEAE",Total n=42,23 (54.8%) n (%)
same,"Musculoskeletal and connective tissue disorders (SOC), grade 3 or higher TEAE",Total n=42,4 (9.5%) n (%)
same,"Nasopharyngitis, any grade TEAE",Total n=42,11 (26.2) n (%) and 11 (26.2%) n (%)
same,"Nausea, any grade TEAE",Total n=42,13 (31.0) n (%) and 13 (31.0%) n (%)
same,"Nervous system disorders (SOC), TEAE",Total n=42,13 (31.0%) n (%)
same,"Neutropenia, grade ≥3 TEAE",Total n=42,3 (7.1) n (%) and 3 (7.1%) n (%)
same,"Oropharyngeal pain, TEAE",Total n=42,5 (11.9%) n (%)
same,"Pain in extremity, any grade TEAE",Total n=42,8 (19.0) n (%) and 8 (19.0%) n (%)
same,Patients who died during the study,Total n=42,6 patients
same,Patients with a grade 3/4 TEAE,Total n=42,18 (42.9%) n (%)
same,Patients with a serious TEAE,Total n=42,16 (38.1%) n (%)
same,"Peripheral edema, any grade TEAE",Total n=42,5 (11.9) n (%) and 5 (11.9%) n (%)
same,"Pyrexia, any grade TEAE",Total n=42,9 (21.4) n (%) and 9 (21.4%) n (%)
same,"Respiratory, thoracic and mediastinal disorders (SOC), TEAE",Total n=42,15 (35.7%) n (%)
same,"Skin and subcutaneous tissue disorders (SOC), TEAE",Total n=42,11 (26.2%) n (%)
same,"Vomiting, TEAE",Total n=42,6 (14.3%) n (%)
same,Patients who died due to progressive disease,"all cohorts, 1 in each cohort",3 patients
